Experimental data as given in EP4790144A1 (Peking Union Medical College Hospital, dated 2026).

T1: 2023-601 project-ABCD1 protein (human, UniProt P33897 650-745)
T1 construct: also called antigen protein ABCD1
T1 sequence: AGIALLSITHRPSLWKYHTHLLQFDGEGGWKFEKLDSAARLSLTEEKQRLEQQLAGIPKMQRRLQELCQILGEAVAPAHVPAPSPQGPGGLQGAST

B1: 07PC17 (antibody, V domains shown)
VH: QLQLVQSGPEVKKPGETVKISCKASGYAFTNYGMNWVKQAPGKDLKWMGWINTYTGDPVYGDDFKGRFAFSLDTSASTAYLQINNLKNEDTATYFCVREPIYYGWVDYWGQGTSVTVSS
VL: DIVMTQAAPSVPVTPGESASISCRSSKSLLHRNGNTYLYWFLQRPGQSPQVLIYRMSNLASGVPDRFSGSGSGTAFTLRISRVEAEDVGVYYCMQHLEYPYTFGGGTKLEIK
B2: 07PC28 (antibody, V domains shown)
VH: QIQLVQSGPELKKPGETVKISCKTSGYTFTDFGMNWVKRAPGQDLKWMGWINTYTGATTYGDEFKGRFAFSLETSASTASLQINNLKNEDSATYFCVREPLYYGWVDYWGQGTSVIVSS
VL: DIVMTQVAPSVPVTPGESVSISCRSSKSLLHRNGNTYLYWFLQRPGQSPQVLIYRMSNLASGVPDRFSGSGSGTAFTLRISRVEAEDVGVYYCMQHLEYPYTFGGGTKLEIK
B3: 07PC03 (antibody, V domains shown)
VH: QLQLVQSGPEVKKPGETVKISCKASGYAFTNYGMNWVKQAPGKDLKWMGWIKTYTGDSVYGDDFKGRFAFSLDTSASTAYLQINDLKNEDTATYFCVREPIYYGWVDYWGQGTSVTVSS
VL: DIVMTQAAPSVPVTPGESASISCRSSKSLLHRNGNTYLYWFLQRPGQSPQVLIYRMSNLASGVPDRFSGSGSGTAFTLRISRVEAEDVGVYYCMQHLEYPYTFGGGTKLEIK
B4: 07PC27 (antibody, V domains shown)
VH: QLQLVQSGPELKKPGETVKISCKASGYAFTNYGMNWVKQTPGKGLKWMGWINTYSGETTYGDDFKGRFAFSLETSASTAYLQINSLKNEDTATYFCVREPIYYGWVDYWGQGTSVTVSS
VL: DIVMTQAAPSVPVTPGESVSISCRSSKSLLHRNGNTYLYWFLQRPGQSPQVLIYRMSNLASGVPDRFSGSGSGTAFTLRISRVEAEDVGVYYCMQHLEYPYTFGGGTKLEIK
B5: 07PC08 (antibody, V domains shown)
VH: EVKLEESGGGLVQPGGSMKLSCGASGFTFSDAWMDWVRQSPEKGLEWVAEIRSKAINHATYYAESVKGRFTISRDDSKSSVYLQMNSLRAEDTGIYYCTRRVDWYFDVWGAGTTVTVSS
VL: DILLTQSPAILSVSPGERVSFSCRASQSIGTSIYWYQQRTNGSPRLLIKYASESISGIPSRFSGSGSGTDFTLSINSVESEDIADYYCQQSNSWPLTFGAGTKLELK
B6: 07TE04 (antibody, V domains shown)
VH: QVQLQQSGAELVKPGASVKLSCKASGYTFTRYYLYWVKQRPGQGLEWIGKINPTNGVADLNEKFKYKATLTVDKSSSTTHMQLSSLTSEDSAVYYCTRVYYKYDGFAYWGQGTLVTVSA
VL: DIVMTQSLKFMSTSVGDRVSIICKASQDVGTAVAWYQQKPAQSPKLLIYWASTRHTGVPDRFTGSGSGTDFTLTISNVQSEDLTDYFCQQYSSYPLTFGGGTKLEIK
B7: 07PC09 (antibody, V domains shown)
VH: IVMLVESGGGLVKPGGSLKLSCVASGFTFSTYAMSWIRQTPEKRLAWVATISSGGSSTYYSDSVKGRFTISRDNAKNTLYLQMSSLRSEDTAMYYCARHGDWDGSLAYWGQGTQVTVSA
VL: DIVMTQSHKLMSTSVGDRVNITCKASQDVNAAVAWYQQQPGQSPKLLFYWASTRHTGVPDRFTGSGSRTDYTLTISGVQAEDLALYYCQQHYSAPRTFGGGTKLEVK
B8: 07TE02 (antibody, V domains shown)
VH: DVKLVESGGGLVKPGGSLKLSCAASGLTFSIYAMSWVRQTPEKRLEWVATISAGDIYPYYSDSVKGRFAISRDNAKNTLYLQMSSLRSEDTAIYYCTSITMAMAYWGQGTLVTVSA
VL: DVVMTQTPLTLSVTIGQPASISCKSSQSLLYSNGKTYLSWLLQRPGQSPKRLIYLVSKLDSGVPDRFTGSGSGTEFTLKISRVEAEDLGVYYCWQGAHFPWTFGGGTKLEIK
B9: 07TE08 (antibody, V domains shown)
VH: DVKLVESGGGLVKPGGSLKLSCAASGFTFSIYAMSWVRQTPEKRLEWVATISAGDIYPYYSDSVKGRFAISRDNAKNTLFLQMSSLRSEDTAIYYCTSITMAMAYWGQGTLVTVSA
VL: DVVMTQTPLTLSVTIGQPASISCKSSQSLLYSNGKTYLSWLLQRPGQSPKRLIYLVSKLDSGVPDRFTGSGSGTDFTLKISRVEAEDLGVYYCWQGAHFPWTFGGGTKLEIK

molecular target: T1, 2023-601 project-ABCD1 protein; assay: ELISA, ABCD1 protein coated at 2 ug/mL, HRP goat anti-mouse secondary antibody

Binding result, binds:
B1, B2, B3, B4, B5, B6, B7, B8, B9
